Results from paper PMC8455534, “A new carboxypeptidase from Aspergillus niger with good thermostability, pH stability and broad substrate specificity” (Scientific Reports, 2021).

Key:
Experiment in all cases: ninhydrin release assay, A570, Lineweaver-Burk
Type in all cases: biochemical, Aspergillus niger
Settings in all cases: 0.1 mol L^−1 disodium hydrogen phosphate-citric acid buffer, pH 6.0, 45 °C
[1] = system: T1, O=C(O)CNC(=O)[C@@H]1CCCN1C(=O)OCc1ccccc1
T1 construct: ORF 1479 bp, 492 residues with predicted 19-residue signal peptide; secreted from Pichia pastoris GS115 (pPIC9K), purified; no tag told
Description: (§1) ninhydrin release assay, A570, Lineweaver-Burk on CapA (serine carboxypeptidase)

[2] = system: T2, CC(C)C[C@H](NC(=O)[C@H](Cc1ccccc1)NC(=O)OCc1ccccc1)C(=O)O
T2 construct: ORF 1479 bp, 492 residues with predicted 19-residue signal peptide; secreted from Pichia pastoris GS115 (pPIC9K), purified; no tag told
Description: as §1

[3] = system: T3, C[C@H](NC(=O)OCc1ccccc1)C(=O)N[C@@H](CCC(=O)O)C(=O)O
T3 construct: ORF 1479 bp, 492 residues with predicted 19-residue signal peptide; secreted from Pichia pastoris GS115 (pPIC9K), purified; no tag told
Description: as §1

[4] = system: T4, C[C@H](NC(=O)OCc1ccccc1)C(=O)N[C@@H](CCCCN)C(=O)O
T4 construct: ORF 1479 bp, 492 residues with predicted 19-residue signal peptide; secreted from Pichia pastoris GS115 (pPIC9K), purified; no tag told
Description: as §1

[5] = system: T5, C[C@H](NC(=O)CNC(=O)OCc1ccccc1)C(=O)O
T5 construct: ORF 1479 bp, 492 residues with predicted 19-residue signal peptide; secreted from Pichia pastoris GS115 (pPIC9K), purified; no tag told
Description: as §1

Substance: CapA (serine carboxypeptidase) (Aspergillus niger CBS 513.88)
- Km [1]: 1170 ± 210 µM
- Vmax [1]: 9770 µM/min/mg
- kcat [1]: 0.47 ± 0.02 s⁻¹
- kcat/Km [1]: 400 ± 50 M⁻¹ s⁻¹
- Km [2]: 63 ± 10 µM
- Vmax [2]: 54800 µM/min/mg
- kcat [2]: 11.7 ± 1.02 s⁻¹
- kcat/Km [2]: 186000 ± 16700 M⁻¹ s⁻¹
- Km [3]: 1440 ± 90 µM
- Vmax [3]: 6490 µM/min/mg
- kcat [3]: 0.18 ± 0.01 s⁻¹
- kcat/Km [3]: 130 ± 10 M⁻¹ s⁻¹
- Km [4]: 180 ± 30 µM
- Vmax [4]: 41900 µM/min/mg
- kcat [4]: 2.32 ± 0.17 s⁻¹
- kcat/Km [4]: 12900 ± 1130 M⁻¹ s⁻¹
- Km [5]: 240 ± 20 µM
- Vmax [5]: 42700 µM/min/mg
- kcat [5]: 1.71 ± 0.08 s⁻¹
- kcat/Km [5]: 7130 ± 480 M⁻¹ s⁻¹
